Experimental data from US20180066036A1 (APOGENIX, published 2018).

B1: PROTEIN-X2 (ligand)
chain: QIAAHVISEASSKTTSVLQWAEKGYYTMSNNLVTLENGKQLTVKRQGLYYIYAQVTFCSNREASSQAPFIASLCLKSPGRFERILLRAANTHSSAKPCGQQSIHLGGVFELQPGASVFVNVTDPSQVSHGTGFTSFGLLKLGSSSSSSAWSHPQFEK
B2: PROTEIN X (ligand)
chain: QIAAHVISEASSKTTSVLQWAEKGYYTMSNNLVTLENGKQLTVKRQGLYYIYAQVTFCSNREASSQAPFIASLCLKSPGRFERILLRAANTHSSAKPCGQQSIHLGGVFELQPGASVFVNVTDPSQVSHGTGFTSFGLLKLGSGSSGSSGSSGSGYIEDAPSDGKFYVRKDGAWVELPTASGPSSSSSSAWSHPQFEK
notes: Three identical polypeptides; also called trivalent control protein; homotrimeric CD40L-RBD stabilized by RB69 trimerisation scaffold

Experiments:
[1] = target: CD40 (native receptor on the surface of human cells) (human, UniProt P25942 21-277); assay: cell-based or functional assay
[2] = target: T1, human CD40-Fc (Enzo, catalogue number ALX-522-016-C050) (human, UniProt P25942 21-193); assay: QCM (Attana A100), human CD40-Fc immobilized, analyte at 1, 5 and 10 µg/ml
T1 construct: Bought reagent; also called immobilized CD40-receptor; not shown: Fc part of the bought fusion protein, not described
Procedure: The equilibrium binding constants (KD) of trivalent constructs of CD40L (e.g.: PROTEIN X) and hexavalent constructs of CD40L (e.g. PROTEIN A, PROTEIN B, and PROTEIN C) to CD40 was calculated based on kinetic binding data (kₒₙ and koff) determined with an automated biosensor system (Attana A100). The A100 allows to investigate molecular interactions in real-time based on the Quartz Crystal Microbalance (QCM) technique.
For this purpose human CD40-Fc, purchased from Enzo (catalogue number: ALX-522-016-C050), was immobilized on the surface of a carboxyl-activated QCM-chip. Trimeric and hexameric CD40L-constructs were used as soluble analyte at concentrations of 1, 5, and 10 μg/ml. Binding (kₒₙ) and dissociation (koff) was analyzed.

CD40 (native receptor on the surface of human cells), sequence (P25942 21-277): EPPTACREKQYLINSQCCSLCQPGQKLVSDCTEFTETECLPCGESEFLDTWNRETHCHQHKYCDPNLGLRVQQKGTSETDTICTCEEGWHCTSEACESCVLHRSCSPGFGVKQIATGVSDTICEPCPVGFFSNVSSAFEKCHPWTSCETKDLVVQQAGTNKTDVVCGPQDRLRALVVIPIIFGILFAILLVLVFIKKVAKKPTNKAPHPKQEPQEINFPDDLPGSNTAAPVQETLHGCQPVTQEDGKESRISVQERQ
T1 sequence (P25942 21-193 limits assumed): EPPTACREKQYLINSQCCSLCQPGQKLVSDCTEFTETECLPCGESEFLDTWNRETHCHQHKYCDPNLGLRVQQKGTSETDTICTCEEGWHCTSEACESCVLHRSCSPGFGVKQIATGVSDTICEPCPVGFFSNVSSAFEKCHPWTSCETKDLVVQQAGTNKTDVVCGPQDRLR

Binder | CD86 (MFI), monocytes 3 d, 10 ng/mL [1] [MFI] | CD86 (MFI), monocytes 3 d, 100 ng/mL [1] [MFI] | CD86 (MFI), monocytes 3 d, 1000 ng/mL [1] [MFI] | HLA-DR,DP (MFI), monocytes 3 d, 10 ng/mL [1] [MFI] | HLA-DR,DP (MFI), monocytes 3 d, 100 ng/mL [1] [MFI] | HLA-DR,DP (MFI), monocytes 3 d, 1000 ng/mL [1] [MFI] | Percentage of macrophages that are CD86+, 3 d, 10 ng/mL [1] [%] | Percentage of macrophages that are CD86+, 3 d, 100 ng/mL [1] [%] | Percentage of macrophages that are CD86+, 3 d, 1000 ng/mL [1] [%] | Percentage of macrophages that are CD206+ and CD163+ (M2-like), 3 d, 10 ng/mL [1] [%] | Percentage of macrophages that are CD206+ and CD163+ (M2-like), 3 d, 100 ng/mL [1] [%] | Percentage of macrophages that are CD206+ and CD163+ (M2-like), 3 d, 1000 ng/mL [1] [%] | Percentage of macrophages that are HLA-DR,DP+, 3 d, 10 ng/mL [1] [%] | Percentage of macrophages that are HLA-DR,DP+, 3 d, 100 ng/mL [1] [%] | Percentage of macrophages that are HLA-DR,DP+, 3 d, 1000 ng/mL [1] [%] | Kd [2] [nM]
B1 | 11 | 12 | 11 | 26 | 29 | 22 | 7 | 7 | 8 | 21 | 23 | 21 | 5 | 7 | 2 | –
B2 | 11 | 11 | 12 | 26 | 26 | 31 | 7 | 8 | 16 | 17 | 21 | 10 | 5 | 6 | 12 | 9.05
